In US9539306B2, “Anti-tumor drug, medicament, composition, and use thereof” (GENE SIGNAL INTERNATIONAL SA, priority 2007, dated 2017):

Tests used:
[1] = tested on: CALU-6 cells (human lung carcinoma); experiment: Human non-small cell lung cancer (CALU-6) xenograft model, tumor growth; assay type: in vivo, Swiss Nude mice; parameters: Growth inhibition based on T/C ratio, T/C ratio (%): concentration or dose not given beside the values; settings: for MTV (mean tumor volume): IP Q2DX8, 168A-T2 15 mg/kg, CDDP 5 mg/kg; for MRTV (mean relative tumor volume): ratio of MTV at time t to volume at D12; for Growth inhibition based on T/C ratio, T/C ratio (%): versus vehicle group 1
Protocol: CALU-6 cells were cultured as adherent cells in complete EMEM medium (Ref. CM1MEM18-01, batch No. 462502, Eurobio, France) 10% fetal calf serum (FCS; Ref. CVFSVF00-01, batch No. S13021, Eurobio, France) under a 37° C., 5% CO2 humidified atmosphere. They were amplified in 75 cm^2-flasks to reach 90×10^6 cells.
At D0, CALU-6 cells (human lung carcinoma) were collected from 75 cm^2-flasks by removing the medium and adding 3 ml of trypsine-EDTA (Ref. CEZTDA00-0U, batch No. 633920, Eurobio, France). After 5 min of incubation at 37° C., cells had detached from the plastic and the enzymatic reaction was stopped by adding 3 ml of EMEM medium containing 10% fetal calf serum. Cells were then centrifuged at 700 g for 5 min at room temperature. They were resuspended in serum-free EMEM culture medium. Cells were counted and viability assessment by Trypan Blue exclusion (Ref. CSTCOL03-0U, batch No. 434511, Eurobio, France). The number of viable CALU-6 cells was >99%. The number of cells was then adjusted to 25×10^6 cells/ml in serum-free medium.
Thirty healthy female Swiss Nude mice were anesthetized by IP injection of Ketamine-Xylazine (80 mg/kg-12 mg/kg; Ref. K-113, Sigma, France). CALU-6 cells 5×10^6 cells/mouse in 200 μl of serum-free medium) were then implanted subcutaneously in the right flank of each mouse.
At D12 post-implantation of the CALU-6 cells, the thirty mice were randomized into […]. Tumor volumes had reached 54 to 296 mm^3 and mean tumor volumes were not statistically different between groups after randomization.
Injections in groups 1, 2, 3 and 4 were performed according to the schedules Q2DX8, i.e. 1 quantity every two days, eight times.
Ketamine/Xylazine (80 mg/kg-12 mg/kg; Ref. K-113, Sigma, France) was used to anaesthetize the animals before sacrifice by cervical dislocation. For all animals, the tumor size was measured twice a week with calipers. The tumor volume (mm^3) was measured according to the formula: (length×width^2)/2.
• Tumor growth curves were drawn using the mean tumor volumes (MTV), • Mean Relative tumor volume (MRTV) was calculated as the ratio between the MTV at time t and the volume at the time of injection (t=D12), • Tumor growth inhibition (T/C, %) was evaluated as the ratio of the median tumor volumes of treated groups versus vehicle group.
Statistical analyses of tumor volumes (TV), time to reach ‘TV’, tumor-doubling time (DT), relative tumor volume (RTV) and tumor growth inhibition (T/C) were performed for all groups. Data are expressed as mean±SD. Groups of data were normally distributed. Univariate analysis were performed to assess differences between groups. Statistical significance was then determined using the Student's t test. A P<0.05 was considered as statistically significant. The Statistical analysis was performed using XLSTAT (Addinsoft, France).

lung cancer line (Calu6) = experiment: Inhibition of lung cancer cell line proliferation in vitro (MTT); assay type: cell-based, human; settings: 48 hours, maximum over tested concentrations
Protocol: (§1) BizX cell preparation of 50000 cells/mL was prepared in complete medium. In a 96 wells plate, […] of the cell preparation was distributed in each well and then incubated with different concentrations of 168A-T2 (each concentration was tested in triplicate). After 48 hours of incubation at 37° C., […] of MTT ([…] in water) were added in each well. After 3 hours of incubation at 37° C., the culture medium was eliminated and […] of DMSO were added to solubilize MMT crystals. The optical density (OD) at 570 nm was then measured using μQuant micro-plate reader (Bio-Tek Instrument gmbh, Colmar, France) coupled to the KC4 (Bio-Tek) software. The OD was corrected by subtracting blank-well OD values (the OD values obtained from wells without cells), and the inhibition of cell proliferation was measured relative to control (OD obtained from wells with untreated kidney tumor cells representing the maximal proliferative response, i.e. 100%).
Calu6 cells were cultured and treated as described in example 5.

HUVEC [2] = experiment: Migration of human endothelial cells (wound assay); assay type: cell-based; settings: 12, 17, 23 μg/mL (0.7, 1, 1.35 μM); 18 hours
Protocol: Cell migration was tested by the wound assay described by Sato and Rifkin (J Cell Biol. 1988; 107:1199) with few modifications. HUVEC grown in growth medium EGM-2MV (Cambrex) were seeded in 24-well plates at 80 000 cells per well in 500 μL of growth medium and grown to confluence at 37° C. in a humidified atmosphere containing 5% CO2. Cells were scrapped with a plastic tip on one line only. After wounding, the culture medium was changed for fresh medium (control, FIG. 3a) or fresh medium supplemented with: • FIG. 3b: 168A-T2 12 μg/mL (0.7 μM) • FIG. 3c: 168A-T2 17 μg/mL (1 μM) • FIG. 3d: […] 23 μg/mL (1.35 μM)
After 18 hours of culture, cells were observed and photographed under the inverted microscope (Analysis, Olympus, Rungis, France).

[3] = tested on: kidney cancer line (BizX); experiment: Inhibition of kidney cancer cell line proliferation in vitro (MTT); assay type: cell-based; settings: 48 hours, maximum over tested concentrations
Protocol: as §1

HUVEC [4] = experiment: In vitro angiogenesis of HUVEC induced by FGF2 and VEGF on Matrigel; assay type: cell-based, human; settings: 3.5, 6.9, 13.6 μg/mL (0.2, 0.4, 0.8 μM)
Protocol: The purified proteins 168A-T2 was tested in vitro on angiogenesis of HUVEC induced by FGF2 and VEGF on Matrigel.
24 wells plates were prepared with 250 μL of BD Matrigel™/well and then incubated 30 minutes in incubator. HUVEC cells were then prepared as described in example 2 and 70 000 cells (in 0.5 mL) were seeded per well and incubated with different concentrations of the purified protein 168A-T2, in Tris-HCl 20 mM buffer (pH 8), containing 150 mM NaCl and urea 2M; this buffer was used as control: • FIG. 2a: Control (Buffer Urea 2M) • FIG. 2b: 168A-T2 3.5 μg/mL (0.2 μM) • FIG. 2c: 168A-T2 6.9 μg/mL (0.4 μM) • FIG. 2d: 168A-T2 13.6 μg/mL (0.8 μM)

HUVEC cells = experiment: Inhibition of endothelial cell proliferation in vitro (MTT); assay type: cell-based, human; settings: comparison with literature (Binetruy-Tournaire et al.)
Protocol: HUVEC cells were cultured to confluency in complete EGM2-MV medium (Cambrex) at 37° C. and in 5% CO2 humidified atmosphere. Cells were then collected by trypsine-EDTA digestion (Versene, Eurobio). After 5 min, the enzymatic reaction was stopped by adding 3 ml of the culture medium containing 5% FCS. Cells were then centrifuged at 220 g for 10 min at room temperature, washed twice with 5 ml of culture medium, suspended in complete culture medium, counted and adjusted to 50 000 cells/ml. One hundred μL per well were then distributed to a 96-well cell culture grade micro-plate (5 000 cells/well) and incubated with different concentrations of the purified protein 168A-T2 in Tris-HCl 20 mM buffer (pH 8), containing 150 mM NaCl and urea 2M; this buffer was used as control.
After 42 hrs at 37° C., cell proliferation was measured using thiazolyl blue tetrazolium bromide (MTT) method. Briefly, MTT (Sigma) was dissolved in PBS at 5 mg/ml, the solution was filtered (0.22 μm) and 10 μl were added to each well of the 96-well micro-plates. […] The optical density (OD) at 570 nm was then measured using μQuant micro-plate reader (Bio-Tek Instrument gmbh, Colmar, France) coupled to the KC4 (Bio-Tek) software. […]

## N.N.[Cl][Pt][Cl] [Cisplatin, cis-diamineplatinum(II) dichloride, reference compound]
[1]; D12 (start of treatment)
  MTV (mean tumor volume): 142.60 mm^3
[1]; D14
  MTV (mean tumor volume): 351.15 mm^3
[1]; D16
  MTV (mean tumor volume): 291.29 mm^3
[1]; D18
  MTV (mean tumor volume): 329.18 mm^3
[1]; D20
  MTV (mean tumor volume): 386.84 mm^3
[1]; D22
  MTV (mean tumor volume): 470.59 mm^3
[1]; D24
  MTV (mean tumor volume): 595.00 mm^3
[1]; D26
  MTV (mean tumor volume): 527.98 mm^3
[1]; D28
  MTV (mean tumor volume): 742.44 mm^3

B1: 168A-T2: fragment of the extracellular domain of protein 168A, SEQ ID NO:4 (108 amino acids), recombinant from E. coli, 18 kD (protein, listed as Homo sapiens)
chain: MAFDVSWFAVHSFGLDKAPVLLSSLDRKGIVTTSRRDWKSDLSLERVSVLEFLLQVHGSEDQDFGNYYCSVTPWVKSPTGSWQKEAEIHSKPVFITVKMDVLNAFKYP
Lung cancer line (Calu6)
  inhibition of proliferation of lung cancer line (Calu6): up to 40%
[1]; D12 (reference time)
  MRTV (mean relative tumor volume): 1
[1]; D12 (start of treatment)
  MTV (mean tumor volume): 159.22 mm^3
[1]; D14
  MTV (mean tumor volume): 181.94 mm^3
  MRTV (mean relative tumor volume): 1.15
  Growth inhibition based on T/C ratio, T/C ratio (%): 37%
[1]; D16
  MTV (mean tumor volume): 264.20 mm^3
  MRTV (mean relative tumor volume): 1.93
  Growth inhibition based on T/C ratio, T/C ratio (%): 39%
[1]; D18
  MTV (mean tumor volume): 322.99 mm^3
  MRTV (mean relative tumor volume): 2.08
  Growth inhibition based on T/C ratio, T/C ratio (%): 17%
[1]; D20
  MTV (mean tumor volume): 391.90 mm^3
  MRTV (mean relative tumor volume): 2.60
  Growth inhibition based on T/C ratio, T/C ratio (%): 29%
[1]; D22
  MTV (mean tumor volume): 485.42 mm^3
  MRTV (mean relative tumor volume): 3.47
  Growth inhibition based on T/C ratio, T/C ratio (%): 16%
[1]; D24
  MTV (mean tumor volume): 642.24 mm^3
  MRTV (mean relative tumor volume): 4.83
  Growth inhibition based on T/C ratio, T/C ratio (%): 15%
[1]; D26
  MTV (mean tumor volume): 529.95 mm^3
  MRTV (mean relative tumor volume): 4.14
  Growth inhibition based on T/C ratio, T/C ratio (%): 45%
[1]; D28
  MTV (mean tumor volume): 615.96 mm^3
  MRTV (mean relative tumor volume): 4.51
  Growth inhibition based on T/C ratio, T/C ratio (%): 45%
HUVEC [2]
  inhibition of human endothelial cell migration: inhibited human endothelial cells migration in a dose dependent manner
[3]
  inhibition of proliferation of kidney cancer line (BizX): up to 20%
HUVEC [4]
  inhibition of in vitro angiogenesis (capillary tube formation): inhibited in vitro angiogenesis in a dose-dependent manner
HUVEC cells
  potency relative to anti-VEGF mAb and/or VEGF receptor (KDR)-based identified peptides: at least 600 fold
